Target: T1, recombinant fusion protein consisting of the extra cellular part of IL-1RAP and the Fc-part of human IgG1 … (human, UniProt Q9NPH3 21-367)
T1 construct: extracellular domain; also called IL-1RAP recombinant protein; recombinant IL-1RAP protein; not shown: Fc-part of human IgG1
T1 sequence (looked up): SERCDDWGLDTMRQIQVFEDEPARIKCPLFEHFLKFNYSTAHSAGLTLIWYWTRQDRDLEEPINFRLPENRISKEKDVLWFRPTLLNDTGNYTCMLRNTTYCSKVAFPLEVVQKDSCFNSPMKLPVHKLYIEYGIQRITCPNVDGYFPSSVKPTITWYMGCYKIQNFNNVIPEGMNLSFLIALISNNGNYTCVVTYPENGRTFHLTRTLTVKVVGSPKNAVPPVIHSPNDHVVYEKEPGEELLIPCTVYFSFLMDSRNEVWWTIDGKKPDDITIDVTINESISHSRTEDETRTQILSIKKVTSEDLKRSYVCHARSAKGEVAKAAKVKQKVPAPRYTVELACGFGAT
Assay: ELISA, IL-1RAP protein captured by coated anti-human Fc, detected with anti-mouse Fc-HRP
Excerpt: Anti-human Fc antibody was coated on a bottom of a plastic ELISA plate.

B1: mouse anti-hIL-1RAP monoclonal antibody clone #E3C3 (antibody, V domains shown)
VH: QVQLQQPGAELMMPGASVKVSCEASGYTFTDSWMHWVKQRPGQGLEWIGAIDPSDSYTTYNQKFTGKATLSVDESSNTAYMQLSSLTSEDSAVYYCARYYSGSNYISPFPYWGQGTLVTVSA
VL: DIVMTQSHKFMSTSVGDRVTITCKASLDVSTAVAWYQQKPGQSPKLLIYSASYRYTGVPDRFTGSGSGTDFTFTISSVQAEDLAVYYCQQHYSPPFTFGSGTNLEIK
notes: Murine hybridoma antibody; It was Alexa Fluor 488 labelled in some flow cytometry; also called #A3C3; #E3C3 mAb
binding result: binds
